Source: article doi:10.1101/366336

Target: hPcf11 (in CF II);hClp1 (human;human, UniProt O94913;Q92989 1-1555;1-425, |)
Test: EMSA

Chain of hPcf11 (in CF II);hClp1 (O94913 whole entry, chain 1 of 2): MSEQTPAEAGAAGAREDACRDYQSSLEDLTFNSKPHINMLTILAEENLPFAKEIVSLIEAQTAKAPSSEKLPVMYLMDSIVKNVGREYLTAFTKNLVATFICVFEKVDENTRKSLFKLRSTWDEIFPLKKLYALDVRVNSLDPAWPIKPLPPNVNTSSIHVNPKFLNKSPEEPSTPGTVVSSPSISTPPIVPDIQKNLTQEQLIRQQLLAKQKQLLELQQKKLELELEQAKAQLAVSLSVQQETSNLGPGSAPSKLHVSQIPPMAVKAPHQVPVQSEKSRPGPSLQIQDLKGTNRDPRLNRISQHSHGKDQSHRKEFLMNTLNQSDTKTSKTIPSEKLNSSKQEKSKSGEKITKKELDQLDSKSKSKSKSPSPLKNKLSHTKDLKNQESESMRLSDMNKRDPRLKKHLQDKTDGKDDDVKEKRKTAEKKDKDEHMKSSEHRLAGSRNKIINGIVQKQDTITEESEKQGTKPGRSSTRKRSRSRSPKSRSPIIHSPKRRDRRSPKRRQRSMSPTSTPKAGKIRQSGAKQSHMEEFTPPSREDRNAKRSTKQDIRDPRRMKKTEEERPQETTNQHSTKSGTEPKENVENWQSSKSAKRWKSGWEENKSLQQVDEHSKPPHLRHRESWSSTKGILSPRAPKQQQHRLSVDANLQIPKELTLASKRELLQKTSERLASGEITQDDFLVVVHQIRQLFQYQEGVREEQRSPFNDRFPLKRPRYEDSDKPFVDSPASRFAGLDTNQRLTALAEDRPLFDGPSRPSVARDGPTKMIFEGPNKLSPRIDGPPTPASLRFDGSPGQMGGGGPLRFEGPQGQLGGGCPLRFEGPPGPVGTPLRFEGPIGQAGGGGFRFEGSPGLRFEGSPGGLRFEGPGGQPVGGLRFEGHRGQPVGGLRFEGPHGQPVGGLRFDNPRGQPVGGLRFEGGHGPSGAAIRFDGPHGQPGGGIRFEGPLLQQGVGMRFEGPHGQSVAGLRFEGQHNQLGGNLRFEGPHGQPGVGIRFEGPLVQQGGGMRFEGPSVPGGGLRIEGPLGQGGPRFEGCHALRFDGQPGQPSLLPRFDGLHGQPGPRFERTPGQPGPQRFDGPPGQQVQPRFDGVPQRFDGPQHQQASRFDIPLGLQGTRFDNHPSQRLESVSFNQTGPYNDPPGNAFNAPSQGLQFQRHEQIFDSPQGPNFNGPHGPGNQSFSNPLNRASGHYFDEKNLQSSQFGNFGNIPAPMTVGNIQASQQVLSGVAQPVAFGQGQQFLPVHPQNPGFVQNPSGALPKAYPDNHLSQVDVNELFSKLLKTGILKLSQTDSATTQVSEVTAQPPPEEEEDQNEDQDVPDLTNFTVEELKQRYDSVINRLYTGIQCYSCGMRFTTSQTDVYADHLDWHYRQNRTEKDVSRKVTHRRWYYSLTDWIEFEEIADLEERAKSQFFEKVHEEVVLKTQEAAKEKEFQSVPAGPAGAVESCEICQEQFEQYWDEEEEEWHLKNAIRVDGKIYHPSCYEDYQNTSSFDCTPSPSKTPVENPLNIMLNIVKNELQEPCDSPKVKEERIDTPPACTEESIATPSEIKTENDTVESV
Chain of hPcf11 (in CF II);hClp1 (Q92989 whole entry, chain 2 of 2): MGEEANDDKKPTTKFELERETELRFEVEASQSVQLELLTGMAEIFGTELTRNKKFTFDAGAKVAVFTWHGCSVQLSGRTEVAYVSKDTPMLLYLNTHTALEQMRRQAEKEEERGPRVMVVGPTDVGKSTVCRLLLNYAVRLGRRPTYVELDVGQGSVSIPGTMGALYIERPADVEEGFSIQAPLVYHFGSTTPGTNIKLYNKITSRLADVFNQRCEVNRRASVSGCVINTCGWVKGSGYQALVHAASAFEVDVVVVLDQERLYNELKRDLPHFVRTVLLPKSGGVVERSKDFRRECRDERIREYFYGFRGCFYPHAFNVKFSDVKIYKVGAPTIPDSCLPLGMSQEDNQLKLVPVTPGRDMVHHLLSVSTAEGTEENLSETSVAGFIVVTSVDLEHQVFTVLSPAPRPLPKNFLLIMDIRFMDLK

| Binder | Kd [nM] |
| --- | --- |
| GGGUUUAAGUGGGUCACGUUUAAAC (ssRNA) [BS2] | 11 |
| GGGUUUAAGUGGGUCACG (ssRNA) [BS2-d1] | 13 |
| UUUAAGUGGGUCACG (ssRNA) [BS2-d3] | 105 |
| GGGGGAGGUGUGGGAGGU (ssRNA) [208-225] | 2.6 |
| CCCUUUAAGUGGGUCACG (ssRNA) [BS2-d2] | 54 |
| GGGGGGGGGGG (ssRNA) [G11] | 41 |
| GGGGGGGGGGGG (ssRNA) [G12] | 21 ± 9 |
| GGUUCAGGGGGAGGUGUGGGAGG (ssRNA) [202-224] | 0.8 |
| GGGGGAGGUGUGGGAGG (ssRNA) [208-224] | 5.2 |
| GGGGGGGGGGGGG (ssRNA) [G13] | 21 ± 12 |
